The DeepSol protein solubility set

Test: soluble on expression in E. coli; label from the status in PepcDB or PDB records

Row | Sequence | soluble on expression in E. coli
1 | SFTMAQQSGGGLTRGSFPEGFVFGTASAAYQYEGAVKEDGRGQTIWDTFAHTFGKITDFSNADVAVDQYHRFEEDIQLMADMGMDAYRFSIAWSRIYPNGVGQVNQAGIDHYNKLIDALLAKGIQPYVTLYHWDLPQALEDKYKGWLDRQIVDDFAAYAETCFREFGDRVKHWITLNEPHTVAIQGYDAGLQAPGRCSVLLHLYCKAGNSGTEPYVVAHHFILAHAAAASIYRTKYKATQNGQLGIAFDVMWFEPMSNTTIDIEAAKRAQEFQLGWFADPFFFGDYPATMRARVGERLPRFTADEAAVVKGALDFVGINHYTTYYTRHNNTNIIGTLLNNTLADTGTVSLPFKNGKPIGDRANSIWLYIVPRGMRSLMNYVKERYNSPPVYITENGMDDSNNPFISIKDALKDSKRIKYHNDYLTNLAASIKEDGCDVRGYFAWSLLDNWEWAAGYSSRFGLYFVDYKDNLKRYPKNSVQWFKALLKT | soluble
2 | MKFFLLKKFSEFLNAQTHFSLKRLNASSFLLETFSKEKHAFVVDLSAPYIGLSKKPPESVLKNTLALDFCLNKFTRNAKILQANIIDNDRILEINGAKDLAYKSENFILRLEMIPKKANLMILDKEKCVIEAFRFNDRVAKNDILGALPPNIYEHQEEDLDFKGLLDILEKDFLFYQHKELEHKKNQIIKRLNAQKERLKEKLEKLEDPKNLQLEAKELQTQASLLLTYQHLIHKHESRVVLKDFEDKERAIEIDKSMPLNAFINKKFTLSKKKKQKSQFLYLEEENLKEKIAFKENQINYVKGAQEESVLEMFMPSKNSKIKRPMSGYEVLYYKDFKIGLGKNQKENIKLLQDARANDLWMHVRNIPGSHLIVFCQKNAPKDDVIMELAKMLIKMQKDAFNSYEIDYTQRKFVKIIKGANVIYSKYRTISLKDT | not soluble
3 | MILDVDYITEEGKPVIRLFKKENGKFKIEHDRTFRPYIYALLRDDSKIEEVKKITGERHGKIVRIVDVEKVEKKFLGKPITVWKLYLEHPQDVPTLREKVREHPAVVDIFEYDIPFAKRYLIDKGLIPMEGEEELKILAFDIETLYHEGEEFGKGPIIMISYADENEARVITWKNIDLPYVESVSTEKEMIKRFLRIIREKDPDIIVTYNGDSFDFPYLAKRAEKLGIKLTIGRDGSEPKMQRIGDMTAVEVKGRIHFDLYHVIRTTINLPTYTLEAVYEAIFGKPKEKVYADEIAKAWESGENLERVAKYSMEDAKATYELGKEFLPMEIQLSRLVGQPLWDVSRSSTGNLVEWFLLRKAYERNEVAPNKPSEEEYQRRLRESYTGGFVKEPEKGLWENIVYLDYKSLYPSIIITHNVSPDTLNLEGCKNYDIAPQVGHKFCKDIPGFIPSLLGHLLEERQKIKTKMKETQDPIEKILLDYRQKAIKLLANSFYGYYGYAKARWYCKECAESVTAWGRKYIELVWKELEEKFGFKVLYIDTDGLYATIPGGESEEIKKKALEFVKYINSKLPGLLELEYEGFYKRGFFVTKKRYAVIDEEGKVITRGLEIVRRDWSEIAKETQARVLETILKHGDVEEAVRIVKEVIQKLANYEIPPEKLAIYEQITRPLHEYKAIGPHVAVAKKLAAKGVKIKPGMVIGYIVLRGDGPISNRAILAEEYDPKKHKYDAEYYIENQVLPAVLRILEGFGYRKEDLRYQKTRQVGLTSWLNIKKS | soluble
4 | MSLRIIKAGLIGCGNISSIYFENVHRFKHLTIVACADLHLERARAQAEKYRIPKACTVAELLEDPEIELVINLTIPQVHAKVCIQALEAGKHVYTEKPLTITLEEGQKLLEKAKETGLLVGCAPDTFLGAGIQTSIQVIERGEIGTPVGASAFMIGRGHEHWHPDPAFYYDVGGGPMYDMGPYYLTALTALLGPMARVSGSARITYPERTILSEPKKGTKIKVSTPTHISGVIDFANGAIASITTSFDAFGGSVLPPIEVYGSEGTLLVPDPNTFDGPVQLRKRDEREFVEVPLTYHYTENNRGIGVADMAMSLLTGSDYRASGTMGFHVLEAMHGFHMSSTSGHHYQMKSTCRKPEPLPVDFRFSYVETEGHHHHHH | soluble
5 | GSSGSSGAAFAKILDPAYQVDKGGRVRFVVELADPKLEVKWYKNGQEIRPSTKYIFEHKGCQRILFINNCQMTDDSEYYVTAGDEKCSTELFVRSGPSSG | soluble
6 | MGSDKIHHHHHHMSTDNLALNIREKAMEAGFDHCGIVKIDALADYVSRLEERAAAFPRSKPFYDFLSKLGTPQAAHEWGKSVIVCAMRYGKYRIPNRADRHIGKLYLYGGYRQPAYSQEYAGMAGFEAFLAAEGIRFAKDVFGIAPARLCAAQANLGVIRNNNFLYTEHGSWVWLETWLIDRELEYRESPNTLPSCPPGCSKCIDACPTGALKAPFLTDMGTCIARLTYSPSGEAPEPLRESMGTWLYGCDECQNACPMNKGRWEEKEEYPRLEELSRHISLEKIAEMDEHAVSDILSPMFWIIGKEKLWMWKCNVIRAMVNGKDPGHHSTIRKLCDDGNENVRRTAEWACRQLGI | not soluble
7 | MQVELIIKNLKVYNSYFKKFIKSDVLINEGKFLHIGKGYEDRLWSENIIDGEDKYIIPGLIDIHMHIESSMTIPREFSKAAIKHGVTTVVADPHEIANVFGVRGIEEFIKFKGNLDIFYGILEHHHHHH | not soluble
8 | MSLQAHCEEFRVCAMCRVLRVNRSGYYAWLCSPNSERAKEDDRLLGLIKHHWLASGSVYGHRKITTDLRDLGERCSRHRVHRLMRTEGLRAQVGYGRKPRFHGGMQCKAAANLLDRQFDVTEPDTAWASDFTFIRTHEGWMYLAVVIDLFSRQVVGWAMRDRADTELVVQAVLSAVWRRKPNTGCLVHSDQGSVYTSDDWRSFLASHGLVCSMSRRGNCHDNAPVESFFGLLKRERIRRRTYPTKDAARAEVFDYIEMFYNPNRRHGSTGDLSPVEFERRYAQRGSEGHHHHHH | not soluble
9 | GTPLSSDEKIRVLVWNIFKQQRAEWQSVLKNFGKDAHLVLLQEAQTTPELVRFATSNYLAADQVPALVLPQHPSGVMTLASAHPIYCCPLREREPILRLPKSALVTVYPLPDARLLMVVNIHAVNFSLGVDVYSKQLLPIGDQIAHHSGPVIMAGDFNAWSRPRMNALYRFAREMSLREVRFSDDQRRRAFGRPLDFVFYRGLSVHDASVLVTRASDHNPLLVEFSPGKP | not soluble
10 | MEGLSMDQVVIFKQIFDKVRNDLNYQWFYSELKRHNVSHYIYYLATENVHIVLKNDNTVLLKGLKNIVSVKFSKDRHLIETTSNKLKSREITFQEYRRNLAKAGVFRWVTNIHEQKRYYYTFDNSLLFTESIQKTTQILPRLEHHHHHH | soluble
11 | MILCSEKEKCEGIKNSKDEGIIPRVLILSTLQGEPSREKAKIGIFGINPGPHLPFERLYYTDILKKHGLFTSEYSKSNAIKAFKEIHDTWVSEFIKNYRNYPFHYKYFANTLEFLKKAKTVLIYRRKYNSVWRISILLEHHHHHH | not soluble
12 | MPYLIIEHLEKISEWLLLEYRHTAQWWGDKLIFTNVKEPEERKILAEIGSVVAESVTKLPFDKSKLIILDPFAEEELKPEDIEEDSLIVVGGILGDFEFTGKTKEFITSKIEGAKARHIGSVQFSIDGASIIAKLISEGKRLEEIEYVESPTIKLDEFSEITLHYAVPKVNGKLLLTPGLIELQKKELGYMEEDVEDEELEKLFGGSLEHHHHHH | soluble
13 | MSLKITDVKVWLVQGIKYNWTLLKIYTDEGYTGVGEATNWPGSPIVFEAAKHVGQRIIGLDPMKTDFIWTKLYRDLNWIGPYGASLCAISGIDMALLDLKAKVLGVPCYELLGGAYRKDIQLYANYWFTGGGHNEADYAAQARRVMDAGFTGLKFDPFAHTNYFYGEDLASNLTLTAEQQDLAFNVSKAVREAVGSECDIMIETHAMLNYRVAVKMAERLAKLDITWYEEPAGPESSQTLRAMRERIPSDVAICVGERHYTRFGIRSLLEKHVCDVIMPDITRCGGPSEMKRMATMAEAYNVLIAPHNPNGPLSTLASSHVCAAIPNFFRQEFMFNDVPWRDTVIDHPIAEMVYDGHLHLSDRPGLGVDLVEEEMEKHPGITTDAPDNFYIEGHHHHHH | soluble
14 | MGSDKIHHHHHHMSTKHAIAAAHFLENKENEAWHDHTLWMVRTKRDKMSHSLPEWERLRELASEIKLYSNSHLDTLLEEFEKNAIANGAIVHWAKDAEEHNEIVLRILRQHDARNLIKSKSMLTEECHMNEFLMSKGIDVVESDLGERILQLMHLAPSHIVMPAIHIKREQISEMMEREMGTEKGNIDPTYLTHAARKNLREKFLHADVAMTGANFAVASTGEIVVCTNEGNADMGTSFPKVHIATMGMEKIVPNLEALGVFTRLLARSGTGQPITSYTSHYRRPPEGQEFHIIIVDNGRSDILAKPDHIRTLNCIRCGECMNTCPVYRRSGGYSYTYFIPGPIGINLGMLRNPEEYSDNVSACSLCLSCSNVCPVKIDLGEQIYRWRQDLDKIGKASKEKKVMSFGMKFLMERSGLFNTALKFAPVVNHLPRFMVYNGLNAWGKGRELPAFAKESFNDMWKNNKVR | not soluble
15 | GSHMRLSDYFPESSISVIHSAKDWQEAIDFSMVSLLDKNYISENYIQAIKDSTINNGPYYILAPGVAMPHARPECGALKTGMSLTLLEQGVYFPGNDEPIKLLIGLSAADADSHIGAIQALSELLCEEEILEQLLTASSEKQLADIISRG | soluble
16 | SNAEELIEIREARMDDLDTIAKFNYNLAKETEGKELDMDVLTKGVKALLLDERKGKYHVYTVFDKVVAQIMYTYEWSDWRNGNFLWIQSVYVDKEYRRKGIFNYLFNYIKNICDKDENIVGMRLYVEKENINAKATYESLNMYECDYNMYEYEVIHS | soluble
17 | MTMPYYASAEQIMRDRSELARKGIARGRSVVVLTFRDGVLFVAENPSTALHKVSELYDRLGFAAVGKYNEFENLRRAGIVHADMRGYSYDRRDVTGRSLANAYAQTLGTIFTEQPKPYEVEICVAEVGRVGSPKAPQLYRITYDGSIVDEQHFVVMGGTTEPIATAMRESYRADLDLEAAVGIAVNALRQGGAGEGEKRNVDVASLEVAVLDQSRPRRAFRRIAGTALEQLVPAEPAAASESAPEPKPDTETKPADTQD | soluble
18 | MKRIGVFTSGGDAPGMNAAIRAVVRQAHALGVEVIGIRRGYAGMIQGEMVPLGVRDVANIIQRGGTILLTARSQEFLTEEGRAKAYAKLQAAGIEGLVAIGGDGTFRGALCLVEEHGMPVVGVPGTIDNDLYGTDYTIGFDTAVNTALEAIDRIRDTAASHERVFFIEVMGRHAGFIALDVGLAGGAEVIAVPEEPVDPKAVAEVLEASQRRGKKSSIVVVAEGAYPGGAAGLLAAIREHLQVEARVTVLGHIQRGGSPTAKDRILASRLGAAAVEALVGGASGVMVGEVEGEVDLTPLKEAVERRKDINRALLRLSQVLAL | soluble
19 | MSLKLLVLIDGSKWSQKAALHAFSIAKRKNAKVILFSVLDRREAKALAFHLSMRSDSLGKIKEFEETIWRETKKSVKEVITTLLELGRREGINCSFKIVEGSAKEEIIKEANSGKYSMVIMGAYGRSGKTRIGSLLEEVVGQIRIPVMIVREGHHHHHH | soluble
20 | MLRLRTPSRIHITLIDLNGSIGRVDGGVGLALEEPHIEIKAKESETFVLKGEPINRERFEIAAAKMAEYCGRGAEIEVVSDYDAHVGLGSGTQISLAVGRAFSELYGLNLTTRQIAEIMGRGGTSGIGVAVFDHGGLVVDGGHSTKEKKSFLPSSASRAKPAPMIARLDFPDWNVVLAIPDLKGFFGEREVNLFQKSCPVPLEDVREICHLILMKMLPAVVEADLDEFGKALKRIQELGFKKAEVEQYGELIKGCFDLADCIGMSSTGPTVYAITDSNAGGIERSLRDYFAEKGYECRTIVTKARNRGVEIEV | not soluble
21 | HWCNIAGWPDFDTFLATMDHKHRKNIRQERAKVARSGVRIQSIHGDEATPIELKAMHHFYVNTFHQYGNAPALTLPFLTHLAKTIPRQLVLFMATLNGKLIGGSLCLRSAKTLYGRHWGGAALPGLHFETCYYQGIDYCLREGLTRFEPGAQGKHKIARG | not soluble
